# Measurements taken from IntAct's records for PubMed 31515488.
# B1: Tubby-related protein 3 (Homo sapiens), O75386 (parent)
# chain: MEASRCRLSPSGDSVFHEEMMKMRQAKLDYQRLLLEKRQRKKRLEPFMVQPNPEARLRRAKPRASDEQTPLVNCHTPHSNVILHGIDGPAAVLKPDEVHAPSVSSSVVEEDAENTVDTASKPGLQERLQKHDISESVNFDEETDGISQSACLERPNSASSQNSTDTGTSGSATAAQPADNLLGDIDDLEDFVYSPAPQGVTVRCRIIRDKRGMDRGLFPTYYMYLEKEENQKIFLLAARKRKKSKTANYLISIDPVDLSREGESYVGKLRSNLMGTKFTVYDRGICPMKGRGLVGAAHTRQELAAISYETNVLGFKGPRKMSVIIPGMTLNHKQIPYQPQNNHDSLLSRWQNRTMENLVELHNKAPVWNSDTQSYVLNFRGRVTQASVKNFQIVHKNDPDYIVMQFGRVADDVFTLDYNYPLCAVQAFGIGLSSFDSKLACE
# B2: Tuftelin-interacting protein 11 (Homo sapiens), Q9UBB9 (parent)
# chain: MSLSHLYRDGEGRIDDDDDERENFEITDWDLQNEFNPNRQRHWQTKEEATYGVWAERDSDDERPSFGGKRARDYSAPVNFISAGLKKGAAEEAELEDSDDEEKPVKQDDFPKDFGPRKLKTGGNFKPSQKGFAGGTKSFMDFGSWERHTKGIGQKLLQKMGYVPGRGLGKNAQGIINPIEAKQRKGKGAVGAYGSERTTQSMQDFPVVDSEEEAEEEFQKELSQWRKDPSGSKKKPKYSYKTVEELKAKGRISKKLTAPQKELSQVKVIDMTGREQKVYYSYSQISHKHNVPDDGLPLQSQQLPQSGKEAKAPGFALPELEHNLQLLIDLTEQEIIQNDRQLQYERDMVVNLFHELEKMTEVLDHEERVISNLSKVLEMVEECERRMQPDCSNPLTLDECARIFETLQDKYYEEYRMSDRVDLAVAIVYPLMKEYFKEWDPLKDCTYGTEIISKWKSLLENDQLLSHGGQDLSADAFHRLIWEVWMPFVRNIVTQWQPRNCDPMVDFLDSWVHIIPVWILDNILDQLIFPKLQKEVENWNPLTDTVPIHSWIHPWLPLMQARLEPLYSPIRSKLSSALQKWHPSDSSAKLILQPWKDVFTPGSWEAFMVKNIVPKLGMCLGELVINPHQQHMDAFYWVIDWEGMISVSSLVGLLEKHFFPKWLQVLCSWLSNSPNYEEITKWYLGWKSMFSDQVLAHPSVKDKFNEALDIMNRAVSSNVGAYMQPGARENIAYLTHTERRKDFQYEAMQERREAENMAQRGIGVAASSVPMNFKDLIETKAEEHNIVFMPVIGKRHEGKQLYTFGRIVIYIDRGVVFVQGEKTWVPTSLQSLIDMAK
# partner: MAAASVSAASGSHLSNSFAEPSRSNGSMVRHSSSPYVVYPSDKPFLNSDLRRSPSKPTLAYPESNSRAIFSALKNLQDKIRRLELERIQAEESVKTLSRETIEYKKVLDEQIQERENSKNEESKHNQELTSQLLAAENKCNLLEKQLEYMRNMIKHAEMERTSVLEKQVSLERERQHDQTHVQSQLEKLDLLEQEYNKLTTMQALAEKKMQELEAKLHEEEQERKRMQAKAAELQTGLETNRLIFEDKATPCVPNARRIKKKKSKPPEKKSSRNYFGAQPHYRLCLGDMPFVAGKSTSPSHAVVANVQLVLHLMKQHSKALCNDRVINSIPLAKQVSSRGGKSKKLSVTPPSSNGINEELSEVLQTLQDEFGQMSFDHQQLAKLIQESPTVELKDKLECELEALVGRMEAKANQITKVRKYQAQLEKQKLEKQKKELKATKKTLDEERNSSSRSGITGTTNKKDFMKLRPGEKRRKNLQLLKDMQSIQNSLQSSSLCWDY
# B3: Zinc finger and BTB domain-containing protein 9 (Homo sapiens), Q96C00 (parent)
# chain: METPTPLPPVPASPTCNPAPRTIQIEFPQHSSSLLESLNRHRLEGKFCDVSLLVQGRELRAHKAVLAAASPYFHDKLLLGDAPRLTLPSVIEADAFEGLLQLIYSGRLRLPLDALPAHLLVASGLQMWQVVDQCSEILRELETSGGGISARGGNSYHALLSTTSSTGGWCIRSSPFQTPVQSSASTESPASTESPVGGEGSELGEVLQIQVEEEEEEEEDDDDEDQGSATLSQTPQPQRVSGVFPRPHGPHPLPMTATPRKLPEGESAPLELPAPPALPPKIFYIKQEPFEPKEEISGSGTQPGGAKEETKVFSGGDTEGNGELGFLLPSGPGPTSGGGGPSWKPVDLHGNEILSGGGGPGGAGQAVHGPVKLGGTPPADGKRFGCLCGKRFAVKPKRDRHIMLTFSLRPFGCGICNKRFKLKHHLTEHMKTHAGALHACPHCGRRFRVHACFLRHRDLCKGQGWATAHWTYK
# partner: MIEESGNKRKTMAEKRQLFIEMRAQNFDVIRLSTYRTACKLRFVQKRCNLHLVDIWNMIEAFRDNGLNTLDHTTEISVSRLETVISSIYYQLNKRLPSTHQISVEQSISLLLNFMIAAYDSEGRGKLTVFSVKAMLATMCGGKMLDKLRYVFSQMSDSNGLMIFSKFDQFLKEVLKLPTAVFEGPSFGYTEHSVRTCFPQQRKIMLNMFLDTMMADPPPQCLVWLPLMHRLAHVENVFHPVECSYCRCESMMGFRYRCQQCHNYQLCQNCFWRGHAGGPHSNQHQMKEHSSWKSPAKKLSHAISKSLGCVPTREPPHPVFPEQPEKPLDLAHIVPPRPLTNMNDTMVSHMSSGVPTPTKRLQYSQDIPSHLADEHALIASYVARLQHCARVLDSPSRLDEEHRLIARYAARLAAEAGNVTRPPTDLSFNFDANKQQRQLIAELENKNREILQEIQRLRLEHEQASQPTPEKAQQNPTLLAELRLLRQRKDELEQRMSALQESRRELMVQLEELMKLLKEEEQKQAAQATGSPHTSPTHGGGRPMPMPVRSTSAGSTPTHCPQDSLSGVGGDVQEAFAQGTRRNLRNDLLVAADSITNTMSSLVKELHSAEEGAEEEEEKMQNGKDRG
# Variants of: B1
# Details: with maga6_human MAGEA6, P43360
# Chain of maga6_human MAGEA6, P43360 (P43360 whole entry): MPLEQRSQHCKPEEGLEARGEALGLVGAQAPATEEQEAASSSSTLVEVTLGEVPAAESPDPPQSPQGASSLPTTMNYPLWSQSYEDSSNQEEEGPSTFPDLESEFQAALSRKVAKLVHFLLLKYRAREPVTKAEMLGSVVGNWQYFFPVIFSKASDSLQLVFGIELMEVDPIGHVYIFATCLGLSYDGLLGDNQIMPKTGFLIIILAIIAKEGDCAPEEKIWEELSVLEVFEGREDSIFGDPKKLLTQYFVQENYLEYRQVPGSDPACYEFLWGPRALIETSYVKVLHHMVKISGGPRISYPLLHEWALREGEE
row,Variant,effect of a mutation on the interaction
1,A296E,with no effect
2,G267S,disrupting interaction strength

# Variants of: B1
# Details: with anr54_human ANKRD54, Q6NXT1
# Chain of anr54_human ANKRD54, Q6NXT1 (Q6NXT1 whole entry): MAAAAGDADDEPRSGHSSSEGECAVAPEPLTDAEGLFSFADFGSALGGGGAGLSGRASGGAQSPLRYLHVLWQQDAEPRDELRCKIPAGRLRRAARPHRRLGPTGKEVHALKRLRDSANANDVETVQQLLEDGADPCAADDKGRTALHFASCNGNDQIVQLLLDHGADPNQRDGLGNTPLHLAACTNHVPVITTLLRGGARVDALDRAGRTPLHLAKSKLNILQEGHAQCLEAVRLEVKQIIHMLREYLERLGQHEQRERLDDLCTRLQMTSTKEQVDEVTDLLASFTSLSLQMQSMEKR
row,Variant,effect of a mutation on the interaction
1,G267S,with no effect

# Variants of: B2
# Details: with cep57_human CEP57, Q86XR8
row,Variant,effect of a mutation on the interaction
1,S688L,with no effect
2,R8Q,with no effect

# Variants of: B3
# Details: with dtnb_human DTNB
row,Variant,effect of a mutation on the interaction
1,S173C,with no effect
